According to patent US20210355192A1 (YALE UNIVERSITY, published 2021):

B1: His-tagged consensus filaggrin subdomain SD150 (other)
chain: SEDSDTQSVSAHGQAGPHQQSHQESARGRSGERSGRSGSFLYQVSTHEQSESAHGRTGPSTGGRQGSHHEQARDSSRHSASQEGQDTIRGHPGSSRGGRQGSHHEQSVDRSGHSGSHHSHTTSQGRSDASRGQSGSRSASRQTRNEEQSG
notes: His-tag kept (thrombin degraded the protein); also called long linker subdomain; not shown: 19-residue N-terminal tag (hexa-his, thrombin site, spacer residues)
B2: His-tagged consensus filaggrin subdomain SD67 (other)
chain: SEDSERWSGSASRNHHGSAQEQSRDGSRHPRSHHEDRAGHGHSADSSRQSGTRHAETSSGGQAASSH
notes: His-tag kept (thrombin degraded the protein); also called short linker subdomain; not shown: 19-residue N-terminal tag (hexa-his, thrombin site, spacer residues)

Biological target: the molecule itself
Assay: gel filtration with multi-angle light scattering (self-association)
Procedure: Multi-angle Light Scattering. PFcR and subdomains (1 mg/ml) in 20 mM Tris-HCl buffer (pH 7.4) containing 0.2M NaCl was applied at 0.5 ml per minute to Superdex200 16/600 (GE, Boston, Mass.) gel filtration column in-line with DAWN HELEOS II light scattering instrument (Wyatt Technology, Santa Barbra, Calif.; laser wavelength 658 nm). Data collection and analysis used Astra software (Wyatt technology).

Protein | binding result
B1 | no binding (tested: 1 mg/ml)
B2 | no binding (tested: 1 mg/ml)
